Data published in patent publication US20250236657A1 (TOSOH, published 2025).
Where a chain is given by its changes, count along the chain named.

Experiments:
[1] = target: AAV vector (AAV5-EGFP), adeno-associated virus serotype 5 (adeno-associated virus serotype 5 (AAV5)); test: ELISA, AAV5-EGFP coated, culture supernatant, anti-6His, A450
[2] = target: AAV vector (AAV5-EGFP), adeno-associated virus serotype 5 (adeno-associated virus serotype 5 (AAV5)); test: ELISA, AAV5-EGFP coated, culture supernatant, anti-6His, A450; the reference itself
AAV2 H271F [3] = target: T1, AAV2 H271F (adeno-associated virus serotype 2 (AAV2), UniProt P03135 1-735); test: affinity HPLC on AVR10s column, pH gradient 4.5 to 2.2; no elution peak, not adsorbed and passed through
T1 construct: Recombinant AAV2 vector particles in filtered cell lysate

AAV2 D529A [4] = target: T2, AAV2 D529A (adeno-associated virus serotype 2 (AAV2), UniProt P03135 1-735); test: as above
T2 construct: Recombinant AAV2 vector particles in filtered cell lysate

AAV2 G383A [5] = target: T3, AAV2 G383A (adeno-associated virus serotype 2 (AAV2), UniProt P03135 1-735); test: as above
T3 construct: Recombinant AAV2 vector particles in filtered cell lysate

AAV2 D529E = target: T4, AAV2 D529E (adeno-associated virus serotype 2 (AAV2), UniProt P03135 1-735); test: affinity HPLC, AVR10s immobilization gel, linear pH gradient 4.5 to 2.2, AAV2 peak top
T4 construct: Recombinant AAV2 vector particles in filtered cell lysate

AAV2 S384A = target: T5, AAV2 S384A (adeno-associated virus serotype 2 (AAV2), UniProt P03135 1-735); test: as above
T5 construct: Recombinant AAV2 vector particles in filtered cell lysate

AAV2 T503S = target: T6, AAV2 T503S (adeno-associated virus serotype 2 (AAV2), UniProt P03135 1-735); test: as above
T6 construct: Recombinant AAV2 vector particles in filtered cell lysate

AAV2 Q263A = target: T7, AAV2 Q263A (adeno-associated virus serotype 2 (AAV2), UniProt P03135 1-735); test: as above
T7 construct: Recombinant AAV2 vector particles in filtered cell lysate

AAV2 S264A = target: T8, AAV2 S264A (adeno-associated virus serotype 2 (AAV2), UniProt P03135 1-735); test: as above
T8 construct: Recombinant AAV2 vector particles in filtered cell lysate

AAV2 E499A = target: T9, AAV2 E499A (adeno-associated virus serotype 2 (AAV2), UniProt P03135 1-735); test: as above
T9 construct: Recombinant AAV2 vector particles in filtered cell lysate

AAV2 H271A = target: T10, AAV2 H271A (adeno-associated virus serotype 2 (AAV2), UniProt P03135 1-735); test: as above
T10 construct: Recombinant AAV2 vector particles in filtered cell lysate

AAV2 S267A = target: T11, AAV2 S267A (adeno-associated virus serotype 2 (AAV2), UniProt P03135 1-735); test: as above
T11 construct: Recombinant AAV2 vector particles in filtered cell lysate

AAV2 S267T = target: T12, AAV2 S267T (adeno-associated virus serotype 2 (AAV2), UniProt P03135 1-735); test: as above
T12 construct: Recombinant AAV2 vector particles in filtered cell lysate

AAV2 R471A = target: T13, AAV2 R471A (adeno-associated virus serotype 2 (AAV2), UniProt P03135 1-735); test: as above
T13 construct: Recombinant AAV2 vector particles in filtered cell lysate

AAV2 Q385A = target: T14, AAV2 Q385A (adeno-associated virus serotype 2 (AAV2), UniProt P03135 1-735); test: as above
T14 construct: Recombinant AAV2 vector particles in filtered cell lysate

[6] = target: T15, AAV2 (wild type), serotype 2 AAV with capsid region VP1 of SEQ ID NO: 99 (adeno-associated virus serotype 2 (AAV2), UniProt P03135 1-735); test: as above
T15 construct: Recombinant AAV2 vector particles (EGFP genome) in filtered cell lysate; the capsid is assembled from VP1, VP2 and VP3

AAV2 H271Q = target: T16, AAV2 H271Q (adeno-associated virus serotype 2 (AAV2), UniProt P03135 1-735); test: as above
T16 construct: Recombinant AAV2 vector particles in filtered cell lysate

AAV2 N382A = target: T17, AAV2 N382A (adeno-associated virus serotype 2 (AAV2), UniProt P03135 1-735); test: as above
T17 construct: Recombinant AAV2 vector particles in filtered cell lysate

AAV2 D528A = target: T18, AAV2 D528A (adeno-associated virus serotype 2 (AAV2), UniProt P03135 1-735); test: as above
T18 construct: Recombinant AAV2 vector particles in filtered cell lysate

AAV2 H271T = target: T19, AAV2 H271T (adeno-associated virus serotype 2 (AAV2), UniProt P03135 1-735); test: as above
T19 construct: Recombinant AAV2 vector particles in filtered cell lysate

AAV2 H271F [7] = target: T1, AAV2 H271F; test: affinity HPLC on AVR21 column, pH gradient 6.0 to 2.0; no elution peak, not adsorbed and passed through
AAV2 D529A [8] = target: T2, AAV2 D529A; test: as above
AAV2 G383A [9] = target: T3, AAV2 G383A; test: as above

B1: AVR10s_A330C (receptor)
chain: MGSAGESDQITLPKNEVQLNCYVLQEPPKGETSTYDWQLITHPRDYSGEMEGEHSQILKLSNLTPGLYEFKAVVEGQNAHSEGYVNVTVEPEPRKNRPPIAIVSPQFQEISLPTTSTVIDGSQSTDDDKIVQYHWEELKGPLREEKISEDTAILKLSKLVPGNYTFRLTVVDSDGATDSTTANLTVNKAVDHHHHHH
In the case of B1, the Binding activity for AAV5 (vs AVR10s) (ratio (AVR10s = 1)) [1] is reported as 1.94.

B2: AVR10s_A330W (receptor)
chain: B1 chain with C21W
In the case of B2, the Binding activity for AAV5 (vs AVR10s) (ratio (AVR10s = 1)) [1] is reported as 1.46.

B3: AVR10s_L333C (receptor)
chain: B1 chain with C21A, L24C
Work on B3 yielded a Binding activity for AAV5 (vs AVR10s) (ratio (AVR10s = 1)) [1] of 1.51.

B4: AVR10s_A330F (receptor)
chain: B1 chain with C21F
For B4, the Binding activity for AAV5 (vs AVR10s) (ratio (AVR10s = 1)) [1] was 1.68.

B5: AVR10s_Q347S (receptor)
chain: B1 chain with C21A, Q38S
B5 was tested, and the Binding activity for AAV5 (vs AVR10s) (ratio (AVR10s = 1)) [1] was 1.73.

B6: AVR10s_Y331C (receptor)
chain: B1 chain with C21A, Y22C
Work on B6 yielded a Binding activity for AAV5 (vs AVR10s) (ratio (AVR10s = 1)) [1] of 1.3.

B7: AVR10s_A330R (receptor)
chain: B1 chain with C21R
In the case of B7, the Binding activity for AAV5 (vs AVR10s) (ratio (AVR10s = 1)) [1] is reported as 1.5.

B8: AVR10s_V332Y (receptor)
chain: B1 chain with C21A, V23Y
In the case of B8, the Binding activity for AAV5 (vs AVR10s) (ratio (AVR10s = 1)) [1] is reported as 1.5.

B9: AVR10s_A330Y (receptor)
chain: B1 chain with C21Y
B9 showed a Binding activity for AAV5 (vs AVR10s) (ratio (AVR10s = 1)) [1] of 2.19.

B10: AVR10s_A330L (receptor)
chain: B1 chain with C21L
B10 was tested, and the Binding activity for AAV5 (vs AVR10s) (ratio (AVR10s = 1)) [1] was 1.53.

B11: AVR10s_I349N (receptor)
chain: B1 chain with C21A, I40N
B11 was tested, and the Binding activity for AAV5 (vs AVR10s) (ratio (AVR10s = 1)) [1] was 1.13.

B12: AVR10s_A330V (receptor)
chain: B1 chain with C21V
B12 gave a Binding activity for AAV5 (vs AVR10s) (ratio (AVR10s = 1)) [1] of 1.83.

B13: AVR10s_V332W (receptor)
chain: B1 chain with C21A, V23W
Work on B13 yielded a Binding activity for AAV5 (vs AVR10s) (ratio (AVR10s = 1)) [1] of 3.87.

B14: AAV-binding protein AVR10s (polypeptide of SEQ ID NO: 4, with polyhistidine tag) (receptor)
chain: B1 chain with C21A
B14 showed a Binding activity for AAV5 (vs AVR10s) (ratio (AVR10s = 1)) [2] of 1.

B15: AVR10s_L348C (receptor)
chain: B1 chain with C21A, L39C
Binder B15 has a Binding activity for AAV5 (vs AVR10s) (ratio (AVR10s = 1)) [1] of 1.19.

B16: AAV-binding protein AVR10s with cysteine tag (SEQ ID NO: 97), immobilised as AVR10s immobilization gel (receptor)
chain: MGSAGESDQITLPKNEVQLNAYVLQEPPKGETSTYDWQLITHPRDYSGEMEGEHSQILKLSNLTPGLYEFKAVVEGQNAHSEGYVNVTVEPEPRKNRPPIAIVSPQFQEISLPTTSTVIDGSQSTDDDKIVQYHWEELKGPLREEKISEDTAILKLSKLVPGNYTFRLTVVDSDGATDSTTANLTVNKAVDHHHHHHCRNDTCG
modifications: immobilised on a TOYOPEARL carrier with iodoacetamide groups; cysteine tag sequence serving as immobilization tag at positions 220-226
notes: purified on Ni Sepharose and coupled to the carrier; also called AVR10s column
B16: no binding (AAV2 H271F [3]); no binding (AAV2 D529A [4]); no binding (AAV2 G383A [5]). For the same binder, the “AVR10s column elution time” value (AAV2 D529E) was 47 min, the “AVR10s column elution time” value (AAV2 S384A) was 52.1 min and the “AVR10s column elution time” value (AAV2 T503S) was 48 min. For the same binder, the “AVR10s column elution time” value (AAV2 Q263A) was 54.4 min, the “AVR10s column elution time” value (AAV2 S264A) was 53.7 min and the “AVR10s column elution time” value (AAV2 E499A) was 53.1 min. For the same binder, the “AVR10s column elution time” value (AAV2 H271A) was 46.7 min, the “AVR10s column elution time” value (AAV2 S267A) was 52.9 min and the “AVR10s column elution time” value (AAV2 S267T) was 54.2 min. For the same binder, the “AVR10s column elution time” value (AAV2 R471A) was 53.4 min, the “AVR10s column elution time” value (AAV2 Q385A) was 50.9 min and the “AVR10s column elution time” value [6] was 54.4 min. The “AVR10s column elution time” value (AAV2 H271Q) was 46.4 min, the “AVR10s column elution time” value (AAV2 N382A) was 46.4 min and the “AVR10s column elution time” value (AAV2 D528A) was 47.5 min. The “AVR10s column elution time” value (AAV2 H271T) was 42.6 min.

B17: AAV-binding protein AVR21 with cysteine tag (SEQ ID NO: 102), immobilised as AVR21 immobilization gel (receptor)
chain: MGSAGESDQITLPKHEAQLNVYVLLVPPKGEASTYDWQLITHPRDYSGEMEGEHSQILKLSNLTPGLYEYRAVVEGQNAHSEGYVNVTVEPEPRKNRPPIAIVSPQFQEISLPTTSTVIDGSQSTDDDKIVQYHWEELKGPLREEKISEDTAILKLSQLVPGNYTFRLTVVDTDGATDSTTADLTVNKAVDHHHHHHCRNDTCG
modifications: immobilised on a TOYOPEARL carrier with iodoacetamide groups; cysteine tag sequence serving as immobilization tag at positions 220-226
notes: KIAA0319L PKD1 and PKD2 with 21 substitutions; also called AVR21 column
B17: no binding (AAV2 H271F [7]); no binding (AAV2 D529A [8]); no binding (AAV2 G383A [9]).
